Positions of bridges follow the written chain, without caps; N, C: chain ends. No end group written: not given here.
Assays:
rat serum albumin = target: T1, rat serum albumin (rat, UniProt P02770 25-608); assay: phage binding
T1 construct: also called Rat SA; RSA

rabbit serum albumin = target: T2, rabbit serum albumin (rabbit, UniProt P49065 25-608); assay: peptide competition; head prints RSA, read as rabbit
T2 construct: also called Rabbit SA; BuSA

human serum albumin = target: T3, human serum albumin (human, UniProt P02768 25-609); assay: phage binding
T3 construct: also called Human SA; HuSA

T2 sequence (P49065 25-608 limits assumed): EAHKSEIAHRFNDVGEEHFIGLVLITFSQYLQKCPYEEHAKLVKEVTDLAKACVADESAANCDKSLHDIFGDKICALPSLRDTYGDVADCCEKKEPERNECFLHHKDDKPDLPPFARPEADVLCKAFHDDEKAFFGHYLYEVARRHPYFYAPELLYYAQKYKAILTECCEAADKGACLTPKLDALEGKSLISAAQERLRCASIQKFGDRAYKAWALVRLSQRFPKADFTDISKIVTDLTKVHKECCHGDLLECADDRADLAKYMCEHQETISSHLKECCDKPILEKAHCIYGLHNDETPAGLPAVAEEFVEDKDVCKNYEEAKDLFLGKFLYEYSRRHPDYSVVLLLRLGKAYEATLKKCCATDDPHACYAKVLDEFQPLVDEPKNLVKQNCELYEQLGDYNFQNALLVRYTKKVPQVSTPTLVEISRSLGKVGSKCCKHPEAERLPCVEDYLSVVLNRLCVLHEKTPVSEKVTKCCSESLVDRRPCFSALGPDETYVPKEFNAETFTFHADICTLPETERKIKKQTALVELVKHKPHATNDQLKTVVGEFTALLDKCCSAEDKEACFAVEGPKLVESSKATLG
T1 sequence (P02770 25-608 limits assumed): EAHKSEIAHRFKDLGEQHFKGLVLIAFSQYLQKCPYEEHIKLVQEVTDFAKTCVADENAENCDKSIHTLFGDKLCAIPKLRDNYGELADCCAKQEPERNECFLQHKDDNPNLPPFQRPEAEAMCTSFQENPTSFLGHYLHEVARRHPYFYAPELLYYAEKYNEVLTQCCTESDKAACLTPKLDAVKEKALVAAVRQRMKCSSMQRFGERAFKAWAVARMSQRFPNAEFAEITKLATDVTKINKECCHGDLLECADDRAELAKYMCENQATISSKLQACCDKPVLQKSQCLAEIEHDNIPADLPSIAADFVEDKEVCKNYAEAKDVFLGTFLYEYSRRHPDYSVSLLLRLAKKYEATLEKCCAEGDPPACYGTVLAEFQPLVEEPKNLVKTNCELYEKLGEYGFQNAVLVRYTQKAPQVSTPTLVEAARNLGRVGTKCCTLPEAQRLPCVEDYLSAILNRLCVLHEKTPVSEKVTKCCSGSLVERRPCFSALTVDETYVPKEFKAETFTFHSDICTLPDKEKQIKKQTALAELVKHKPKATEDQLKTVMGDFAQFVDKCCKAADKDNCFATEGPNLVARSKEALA

| Binder | binding result (rat serum albumin) | other results |
| --- | --- | --- |
| DTCADLVRLGLECWA (on phage) [RD-R2] | binds |  |
| DTCEDLVRLGLECWA (on phage) [RD-R5] | binds |  |
| NTCADLVRLGLECWA (on phage) [RD-R7] | binds |  |
| Ac-DICLPRWGCLWED-NH2 (disulfide 3-9 (inferred), free peptide) [SA26] |  | IC50 (rabbit serum albumin): 3120 nM |
| EWDVCLPHWGCLWDG (on phage) [RBC-R16] | binds |  |
| Ac-RLIEDICLPRWGCLWE-NH2 (disulfide 7-13 (inferred), free peptide) [SA29] |  | IC50 (rabbit serum albumin): 400 nM |
| Ac-LIEDICLPRWGCLWED-NH2 (not fully specified (bridges); printed as Ac LIEDICLPRWGCLWEDNH2; cysteine pairing not given here, free peptide) [SA23] |  | IC50 (rabbit serum albumin): 360 nM |
| IVEMCYYPGICWISP (on phage) [HB-H10] |  | binding result (human serum albumin): binds |
| SGAICYVPGICWTHA (on phage) [HB-H7] |  | binding result (human serum albumin): binds |
| TTEMCYFPGICWKTE (on phage) [HBC-H14] |  | binding result (human serum albumin): binds |
| Ac-IEDICLPRWGCLWED-NH2 (not fully specified (bridges); printed as Ac IEDICLPRWGCLWEDNH2; cysteine pairing not given here, free peptide) [SA24] |  | IC50 (rabbit serum albumin): 1380 nM |
| Ac-RLIEDICLPRWGCL-NH2 (disulfide 7-13 (inferred), free peptide) [SA33] |  | IC50 (rabbit serum albumin): 4310 nM |
| MWDVCFPDWGCLWDV (not fully specified (bridges); cysteine pairing not given here, on phage) [RBC-R15] | binds |  |
| Ac-QRLIEDICLPRWGCLWEDDF-NH2 (not fully specified (bridges); printed as Ac QRLIEDICLPRWGCLWEDDF NH2; cysteine pairing not given here, free peptide) [SA20] |  | IC50 (rabbit serum albumin): 260 nM |
| NWDLCFPDWGCLWDD (on phage) [RBC-R8] | binds |  |
| EFDLCLPTWGCLWED (on phage) [RBC-R13] | binds |  |
| FEDLCVVRWGCLWGD (not fully specified (bridges); cysteine pairing not given here, on phage) [RBC-R6] | binds |  |
| DTCDDLVQLGLECWA (on phage) [RD-R11] | binds |  |
| VWDLCLPQWGCLWDE (on phage) [RBC-R11] | binds |  |
| EWDVCFPAWGCLWDQ (on phage) [RBC-R18] | binds |  |
| Ac-EDICLPRWGCLW-NH2 (disulfide 4-10 (inferred), free peptide) [SA32] |  | IC50 (rabbit serum albumin): 2170 nM |
| Ac-DICLPRWGCL-NH2 (disulfide 3-9 (inferred), free peptide) [SA34] |  | IC50 (rabbit serum albumin): 28200 nM |
| DFDLCLPDWGCLWDD (on phage) [RBC-R10] | binds |  |
| Ac-IEDICLPRWGCLWE-NH2 (disulfide 5-11 (inferred), free peptide) [SA30] |  | IC50 (rabbit serum albumin): 1800 nM |
| Ac-ICLPRWGCLWED-NH2 (disulfide 2-8 (inferred), free peptide) [SA27] |  | IC50 (rabbit serum albumin): 86700 nM |
| KTEICYFPGICWMSG (not fully specified (bridges); cysteine pairing not given here; also: phage-displayed, on phage) [HBC-H15] |  | binding result (human serum albumin): binds |

| Binder | binding result (rat serum albumin) | other results |
| --- | --- | --- |
| Ac-RLIEDICLPRWGCLWED-NH2 (not fully specified (bridges); printed as Ac RLIEDICLPRWGCLWEDNH2; cysteine pairing not given here, free peptide) [SA22] |  | IC50 (rabbit serum albumin): 430 nM |
| MDDICLHHWGCLWDE (on phage) [RBC-R1] | binds |  |
| KMGRVDFCLPKWGCLWGDEL (not fully specified (bridges); cysteine pairing not given here, on phage) [RB-R13] | binds |  |
| MDDLCLPNWGCLWGD (not fully specified (bridges); cysteine pairing not given here, on phage) [RBC-R2] | binds |  |
| EEDVCLPVWGCLWEG (on phage) [RBC-R20] | binds |  |
| MFDLCLPKWGCLWGN (not fully specified (bridges); cysteine pairing not given here, on phage) [RBC-R12] | binds |  |
| Ac-RLIEDICLPRWGCLW-NH2 (disulfide 7-13 (inferred), free peptide) [SA31] |  | IC50 (rabbit serum albumin): 200 nM |
| DICLPRWGCLW (on phage) [RC-R13] | binds |  |
| DICLPVWGCLW (on phage; also called RC-R2; RC-R3) [RC-R1] | binds |  |
| QRHMMDFCLPKWGCLWGDGY (not fully specified (bridges); cysteine pairing not given here, on phage) [RB-R4] | binds |  |
| QGGMGDFCLPQWGCLWGEDL (on phage) [RB-R17] | binds |  |
| QTELCYFPGICWNES (on phage) [HBC-H13] |  | binding result (human serum albumin): binds |
| QRPIMDFCLPKWGCLWEDGF (on phage) [RB-R7] | binds |  |
| EEDLCLPVWGCLWGA (on phage) [RBC-R14] | binds |  |
| WEDLCLPDWGCLWED (not fully specified (bridges); cysteine pairing not given here, on phage) [RBC-R5] | binds |  |
| FEDFCLPNWGCLWGS (on phage) [RBC-R4] | binds |  |
| ERQMVDFCLPKWGCLWGDGF (on phage) [RB-R11] | binds |  |
| QGYMVDFCLPRWGCLWGDAN (not fully specified (bridges); cysteine pairing not given here, on phage) [RB-R12] | binds |  |
| Ac-EDICLPRWGCLWED-NH2 (not fully specified (bridges); printed as Ac EDICLPRWGCLWEDNH2; cysteine pairing not given here, free peptide) [SA25] |  | IC50 (rabbit serum albumin): 2730 nM |
| SEDFCLPVWGCLWED (not fully specified (bridges); cysteine pairing not given here, on phage) [RBC-R9] | binds |  |
| WDDICFRDWGCLWGS (on phage) [RBC-R7] | binds |  |
| QSQLEDFCLPKWGCLWGDGF (not fully specified (bridges); cysteine pairing not given here, on phage) [RB-R15] | binds |  |
| ICLPRWGCLW-NH2 (not fully specified (bridges); printed as ICLPRWGCLWNH2; cysteine pairing not given here, free peptide) [SA18] |  | IC50 (rabbit serum albumin): 125000 nM |
| DICLPRWGCL-NH2 (not fully specified (bridges); printed as DICLPRWGCLNH2; cysteine pairing not given here, free peptide) [SA19] |  | IC50 (rabbit serum albumin): 24500 nM |
| DSCGDLLRLGLECWA (on phage) [RD-R6] | binds |  |
| DTCSDLVGLGLECWA (on phage) [RD-R1] | binds |  |

From patent US20060073152A1 (Genentech, published 2006)
